Data reported in patent US20110289632A1, “METHYLKETONE SYNTHASE, PRODUCTION OF METHYLKETONES IN PLANTS AND BACTERIA” (The Regents of the University of Michigan, priority 2009, published 2011).

Substrate: CCCCCCCCCCCC(=O)CC(=O)O
Experiment: Steady-state kinetic decarboxylase assay (3-ketomyristic acid to 2-tridecanone, GC-MS)
Type: biochemical, Solanum habrochaites f glabratum
Conditions: other: ShMKS1 decarboxylase, substrate 5 μM to 75 μM, pH 7.0, 23° C., 10 min
Experimental: To examine the possible decarboxylase activity of ShMKS1 as well as ShMKS2 in vitro, we tested homogenous recombinant ShMKS1 and partially purified recombinant ShMKS2 proteins (without their transit peptides) for their ability to convert 3-ketomyristic acid into its 2-tridecanone decarboxylated product. […] In steady-state kinetic assays, ShMKS1 was determined to have a KM of 18.4±5.6 μM for 3-ketomyristic acid, with an apparent kcat of 227.9±24.1 min^−1.
His-tagged ShMKS1 and ShMKS2 were affinity-purified on Nickel-agarose chromatography using the protocol described in Fridman et al., (2005) Metabolic, genomic, and biochemical analyses of glandular trichomes from the wild tomato species Lycopersicon hirsutum identify a key enzyme in the biosynthesis of methylketones, Plant Cell 17: 1252-1267. After elution from the Nickel-agarose column, the proteins were analyzed by SDS-PAGE and ShMKS2 dialyzed against 50 mM phosphate buffer pH 6.8, 500 mM NaCl, and 1M (NH4)2SO4, and 2 mM DTT and ShMKS1 dialyzed against 12.5 mM phosphate buffer pH 6.8, 50 mM NaCl, and 2 mM DTT. ShMKS1 purity was estimated at 99%, and ShMKS2 purity was estimated at 6%.
A typical decarboxylase assay consisted of a 500 μL reaction solution containing ShMKS1 or ShMKS2 (2.5 μg), 3-ketomyristic acid (0.1 mM), and 1,3-bis(tris(hydroxymethyl)methylamino) propane—Na^+ (20 mM, pH 7.0). […]

B1: Solanum habrochaites f glabratum methylketone synthase 1 (ShMKS1), recombinant His-tagged, SEQ ID NO: 17 (Solanum habrochaites) (protein)
chain: MEKSMSPFVKKHFVLVHTAFHGAWCWYKIVALMRSSGHNVTALDLGASGINPKQALQIPNFSDYLSPLMEFMASLPANEKIILVGHALGGLAISKAMETFPEKISVAVFLSGLMPGPNIDATTVCTKAGSAVLGQLDNCVTYENGPTNPPTTLIAGPKFLATNVYHLSPIEDLALATALVRPLYLYLAEDISKEVVLSSKRYGSVKRVFIVATENDALKKEFLKLMIEKNPPDEVKEIEGSDHVTMMSKPQQLFTTLLSIANKYK
notes: no cleavable transit peptide, 265-residue protein
  Km: 18.4 ± 5.6 µM
  kcat: 3.798 ± 0.402 s⁻¹
